Tests used:
[1] = target: T1, Fc-tagged extracellular domain (ECD) of the recombinant human EGFR (rhEGFR) (human, UniProt P00533 25-645); test: apparent affinity by multi-point competitive ELISA using purified EGFR, Fab-phage; Fab-phage, first account of the DL06 selection
T1 construct: extracellular domain; also called rhEGFR-ECD; rhEGFR-ECD-Fc; not shown: Fc tag of the bought protein (R&D 344-ER)

[2] = target: T2, Fc-tagged ECD of ErbB3 (R&D 348-RB) (human, UniProt P21860 20-643); test: single point Fab-phage ELISA on immobilized protein
T2 construct: extracellular domain; also called ErbB family member; not shown: Fc tag of the bought protein

[3] = target: T3, Fc-tagged ECD of ErbB2 (ErbB family member, R&D 1129-ER) (human, UniProt P04626 23-652); test: as above
T3 construct: extracellular domain; not shown: Fc tag of the bought protein

[4] = target: T4, Fc-tagged ECD of ErbB4 (ErbB family member, R&D 1131-ER) (human, UniProt Q15303 26-651); test: as above
T4 construct: extracellular domain; not shown: Fc tag of the bought protein
T4 sequence (looked up): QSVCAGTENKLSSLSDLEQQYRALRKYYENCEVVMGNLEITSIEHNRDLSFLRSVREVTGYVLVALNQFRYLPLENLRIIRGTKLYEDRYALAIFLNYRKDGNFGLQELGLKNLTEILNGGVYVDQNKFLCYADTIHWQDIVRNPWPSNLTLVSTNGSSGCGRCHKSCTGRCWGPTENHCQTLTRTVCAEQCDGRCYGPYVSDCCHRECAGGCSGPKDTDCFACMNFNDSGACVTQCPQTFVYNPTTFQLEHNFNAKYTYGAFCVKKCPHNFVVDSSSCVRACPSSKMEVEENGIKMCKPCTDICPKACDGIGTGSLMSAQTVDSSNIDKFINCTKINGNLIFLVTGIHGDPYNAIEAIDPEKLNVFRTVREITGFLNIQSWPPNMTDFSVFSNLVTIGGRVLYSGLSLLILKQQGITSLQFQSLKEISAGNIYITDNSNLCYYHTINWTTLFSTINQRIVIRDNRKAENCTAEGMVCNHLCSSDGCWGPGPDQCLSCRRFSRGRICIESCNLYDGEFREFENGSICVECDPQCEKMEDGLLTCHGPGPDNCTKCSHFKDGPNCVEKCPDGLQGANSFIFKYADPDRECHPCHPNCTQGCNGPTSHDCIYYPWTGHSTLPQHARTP

[5] = target: T5, cell-surface EGFR (endogenous on A431, MDA-MB-231 and other cancer cell lines); pBABE-EGFR transfected 293T … (UniProt P00533 25-1210, limits assumed); test: flow cytometry on A431 cells, 800CW-labelled fragment
T5 construct: whole, on cells; Untagged EGFR on cells; also called endogenous cell-surface EGFR; EGFR1

Kd [1]: > 100 nM
binding result [2]: binds
binding result [3]: no binding
binding result [4]: no binding
Kd [5]: > 1000 nM
B1: Fab DL06 (Fab)
heavy: EVQLVESGGGLVQPGGSLRLSCAASGFNISSSSIHWVRQAPGKGLEWVAYISSYYSSTYYADSVKGRFTISADTSKNTAYLQMNSLRAEDTAVYYCARTYCPPLMLYNPTTYQMDVNPEGKYSFGATCGWAMDYWGQGTLVTVSSASTKGPSVFPLAPSSKSTSGGTAALGCLVKDYFPEPVTVSWNSGALTSGVHTFPAVLQSSGLYSLSSVVTVPSSSLGTQTYICNVNHKPSNTKVDKKVEPKSCDKTHT
light: DIQMTQSPSSLSASVGDRVTITCRASQSVSSAVAWYQQKPGKAPKLLIYSASSLYSGVPSRFSGSRSGTDFTLTISSLQPEDFATYYCQQWSYYPITFGQGTKVEIKRTVAAPSVFIFPPSDSQLKSGTASVVCLLNNFYPREAKVQWKVDNALQSGNSQESVTEQDSKDSTYSLSSTLTLSKADYEKHKVYACEVTHQGLSSPVTKSFNRGECGGSDYKDDDDK
notes: Fab with the EGFR dimerization loop grafted in CDR-H3; the light chain entry ends in a FLAG tag; also called DL06 Fab; parent clone DL06

Reference: patent publication US20200087405A1 (UNIVERSITY OF SASKATCHEWAN, published 2020)
